Measured values published in article PMC11574021, “CEP192 localises mitotic Aurora-A activity by priming its interaction with TPX2” (The EMBO Journal, 2024).
Where two headings read alike, the source gives them in different places.

B2: Aurora-A^CAKD (Aurora-A kinase domain, aa 122–403 C290A, C393A), unphosphorylated (domain or fragment, human, UniProt O14965 122-403, looked up)
chain: ESKKRQWALEDFEIGRPLGKGKFGNVYLAREKQSKFILALKVLFKAQLEKAGVEHQLRREVEIQSHLRHPNILRLYGYFHDATRVYLILEYAPLGTVYRELQKLSKFDEQRTATYITELANALSYCHSKRVIHRDIKPENLLLGSAGELKIADFGWSVHAPSSRRTTLAGTLDYLPPEMIEGRMHDEKVDLWSLGVLCYEFLVGKPPFEANTYQETYKRISRVEFTFPDFVTEGARDLISRLLKHNPSQRPMLREVLEHPWITANSSKPSNAQNKESASKQS
notes: Aurora-A kinase domain, human, residues 122-403, variant lacking surface cysteines; also called Aurora-A 122–403 C290A C393A; unphosphorylated Aurora-A^CAKD; source: E. coli RIL, co-expressed with lambda phosphatase, purified (HisTrap, TEV cleavage, SEC); not shown: His6, N-terminal, cleaved
B3: human CEP192 468–533 Y487A/F490A (domain or fragment, UniProt Q8TEP8 468-533, looked up)
chain: PQSVVYQNEEGRWVTDLAYATSANSKQNLNVSLSDEMNEDFRSGSEAFDLIAQDEEEFNKEHQFIQ
notes: source: E. coli B834 RIL, purified (HisTrap, TEV cleavage, SEC); not shown: His6, N-terminal, cleaved; SUMO, N-terminal, cleaved

Assays:
[1] = biological target: T1, unphosphorylated Aurora-A CAKD (Homo sapiens, UniProt O14965, C290A/C393A); assay: Fluorescence anisotropy competition with FAM-TPX2 7-43; format: binding; settings: in words, Aurora-A CAKD
T1 construct: 10 μM Aurora-A kinase domain (phosphorylated or unphosphorylated C290A C393A 122–403); His (N, cleaved yes); made in house; host or cells: E. coli RIL, co-expressed with lambda phosphatase
T1 sequence (O14965 122-403 C290A/C393A): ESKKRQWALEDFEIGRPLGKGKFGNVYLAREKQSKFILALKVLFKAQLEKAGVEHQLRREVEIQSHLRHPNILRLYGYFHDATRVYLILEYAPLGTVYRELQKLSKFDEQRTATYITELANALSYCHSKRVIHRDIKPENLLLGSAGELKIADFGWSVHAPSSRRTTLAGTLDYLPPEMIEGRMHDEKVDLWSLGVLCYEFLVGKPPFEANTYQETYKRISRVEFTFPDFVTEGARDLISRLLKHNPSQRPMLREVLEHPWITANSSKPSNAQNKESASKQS
Method: (§1) Assays were performed in 25 mM HEPES pH 7.5, 150 mM NaCl, 2 mM DTT, 5 mM MgCl2, 0.01% Tween 20. For CEP192 and TPX2 competition assays 10 μM Aurora-A kinase domain (phosphorylated or unphosphorylated C290A C393A 122–403) was preincubated on ice with 100 nM FAM-TPX2 7-43 or 100 nM FAM-CEP192 501–533. For TACC3 competition, due to weaker binding, 25 μM Aurora-A kinase domain (phosphorylated or unphosphorylated C290A C393A 122–403) was preincubated with 100 nM FAM-TACC3 522-536. Serial dilutions of competitor (CEP192) were performed in triplicate into a low volume 384-well black plate, before the premixed Aurora-A and tracer were added. A control row included no tracer. Plates were left incubating for 1 h at room temperature before the fluorescence anisotropy was measured using a HIDEX plate reader, with excitation at 485 nm and emission at 535 nm. For direct binding experiments, the assay was performed as above, but the Aurora-A (122–403 C290A C393A or point mutants) was diluted across the plate from high to low concentration, before the addition of 50 nM tracer (FAM-CEP192 501–533) to three replicate rows. Buffer only was added to the control row.
(§2) Fluorescence anisotropy data were processed using Microsoft Excel to calculate intensity and anisotropy using the equation listed in (Yeo et al, [2013]). The IC50 and Kd values were calculated using Origin (OriginLab) where the data fitted to a sigmoid and are summarised in Appendix Table S3.

Aurora-A CAKD = biological target: T2, Aurora-A CAKD (Homo sapiens, UniProt O14965, C290A/C393A); assay: Fluorescence anisotropy competition with FAM-TACC3 522-536; format: binding; settings: in words
T2 construct: 25 μM Aurora-A kinase domain (phosphorylated or unphosphorylated C290A C393A 122–403); His (N, cleaved yes); made in house; host or cells: E. coli
T2 sequence (O14965 122-403 C290A/C393A): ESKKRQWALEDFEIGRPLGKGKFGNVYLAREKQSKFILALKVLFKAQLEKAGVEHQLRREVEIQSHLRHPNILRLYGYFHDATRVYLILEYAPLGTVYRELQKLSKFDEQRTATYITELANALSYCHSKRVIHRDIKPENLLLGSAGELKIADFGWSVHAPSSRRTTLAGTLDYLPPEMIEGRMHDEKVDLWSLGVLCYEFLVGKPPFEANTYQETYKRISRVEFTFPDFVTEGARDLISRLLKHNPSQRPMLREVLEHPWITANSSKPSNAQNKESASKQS
Method: as §1, with “For direct binding experiments, the assay was performed as above, but the Aurora-A (122–403 C290A C393A or point mutants) was diluted across the plate from high to low concentration, before the addition of 50 nM tracer (FAM-CEP192 501–533) to three replicate rows. Buffer only was added to the control row.” left out
as §2

[2] = biological target: T3, phosphorylated Aurora-A CAKD (Homo sapiens, UniProt O14965, C290A/C393A); assay: ADP-Glo kinase assay, kemptide substrate; format: biochemical
T3 construct: 10 nM Aurora-A 122–403 C290A C393A phosphorylated protein; His (N, cleaved yes); made in house; host or cells: E. coli B834 (no lambda phosphatase)
T3 sequence (O14965 122-403 C290A/C393A): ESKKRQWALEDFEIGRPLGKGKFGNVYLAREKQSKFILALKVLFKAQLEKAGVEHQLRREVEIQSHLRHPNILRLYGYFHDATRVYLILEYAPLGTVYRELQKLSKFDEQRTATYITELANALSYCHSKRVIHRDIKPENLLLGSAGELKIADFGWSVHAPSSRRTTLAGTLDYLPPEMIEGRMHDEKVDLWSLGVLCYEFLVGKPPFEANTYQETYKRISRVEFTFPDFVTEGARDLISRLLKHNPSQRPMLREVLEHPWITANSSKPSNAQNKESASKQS
Method: Reactions were initiated by the addition of 10 μM ATP and 100 μM kemptide as substrate (Cambridge Bioscience Ltd). The reactions were incubated at room temperature for 60 min before 5 μl was transferred into 5 ul of ADP-Glo Reagent (Promega) in a 384-well low volume low binding plate (Greiner Bio-one). After a further 40 min at room temperature, 10 μl of kinase detection reagent was added to each well, and the reaction was allowed to incubate for an additional 30 min. Luminescence was measured on a HIDEX Sense plate reader (HIDEX) using a 1 s integration time. Control data was subtracted from the luminescence and three repeats were averaged before being fitted to a sigmoidal plot using Origin (OriginLab), where IC50 and EC50 values were calculated.

[3] = system: PLK1-pT210 in RPE1 p53-/- cells; assay: Western blot densitometry, PLK1-pT210, RPE1 p53-/-; format: cell-based, Homo sapiens; settings: mitotic RPE1 p53-/- lysates, inhibitor 30 min
Method: (§3) For measuring monopolar spindle diameter and counting centriolar foci by immunofluorescence, cells were treated with 10 µM STLC for 1 h and 4 h prior to fixation, respectively.
(§4) Drugs were resuspended in DMSO to the stock concentrations indicated in square brackets.
(§5) Cells were lysed on ice for 30 min in lysis buffer (50 mM tris pH 8.0, 300 mM NaCl, 0.2%(v/v) NP-40, 10%(v/v) glycerol, protease inhibitor cocktail C, phosphatase inhibitor cocktail 3 (Sigma, 1:200 dilution), 100 nM okadaic acid (Enzo, ALX-350-003-C100)). Lysates were then centrifuged at 14,000 × g, 15 min, 4 °C, the supernatants were transferred to a fresh tube, and the pellet was discarded. Protein concentrations were measured by Bradford assay using Protein Assay Dye Reagent Concentrate (Bio-Rad Laboratories, 5000006). NuPage LDS sample buffer, supplemented with NuPAGE sample reducing agent (Invitrogen) were added prior to boiling for 10 min at 90 °C. […] Nitrocellulose was then blocked in 5% milk (wt/v) in TBS, 0.1% Tween (v/v) (TBST) for 1 h. Primary and secondary antibodies were diluted in 5% milk, TBST and incubated overnight at 4 °C or for 1 h at room temperature, respectively. […]
(§6) Densitometric quantification of western blots was also performed in ImageJ. Intensity was measured in a rectangular region of interest (ROI) around each band. […] An adjacent region was also measured to account for background intensity.

[4] = system: TCTP-pS46 in RPE1 p53-/- cells; assay: Western blot densitometry, TCTP-pS46, RPE1 p53-/-; format: cell-based, Homo sapiens; settings: mitotic RPE1 p53-/- lysates, inhibitor 30 min
Method: as §3, §4, §5, §6

Aurora-A (Homo sapiens) = Aurora-A (Homo sapiens) (UniProt O14965); assay: fluorescence polarisation; settings: cited from earlier work
Sequence of Aurora-A (Homo sapiens) (O14965 whole entry): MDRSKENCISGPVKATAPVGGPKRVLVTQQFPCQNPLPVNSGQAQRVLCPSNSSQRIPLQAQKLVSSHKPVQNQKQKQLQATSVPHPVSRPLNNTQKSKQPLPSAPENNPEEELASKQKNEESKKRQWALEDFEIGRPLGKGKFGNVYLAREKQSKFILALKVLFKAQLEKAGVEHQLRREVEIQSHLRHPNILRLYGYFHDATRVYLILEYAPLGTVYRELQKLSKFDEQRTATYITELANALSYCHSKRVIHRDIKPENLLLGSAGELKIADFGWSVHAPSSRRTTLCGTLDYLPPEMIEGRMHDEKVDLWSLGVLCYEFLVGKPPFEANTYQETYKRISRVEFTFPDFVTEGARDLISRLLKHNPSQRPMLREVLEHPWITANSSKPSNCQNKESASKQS

Aurora-A = settings: from ITC; ref (Burgess et al, [2015]; McIntyre et al, [2017]; Zorba et al, [2014]); cited from earlier work
Method: This is a higher affinity than observed in a previous study that used CEP192 proteins fused to MBP, a large protein tag that might have affected the interaction (Park et al, [2023]). For context, the affinity of Aurora-A for its other key mitotic partners are: TPX2_1-43 (Kd 0.3–2 μM from ITC) and TACC ...

human CEP192 468–533 = biological target: T4, human CEP192 468–533 (human, UniProt Q8TEP8 468-533); assay: ITC; 250 μM Aurora-A in the syringe, 25 μM CEP192 construct in the cell; 25 °C; 20 mM tris pH 7.5, 200 mM NaCl, 10% glycerol, 5 mM MgCl2; settings: both partners purified
T4 construct: also called CEP192_(506-527_F); source: E. coli B834 RIL, purified (HisTrap, TEV cleavage, SEC); for crystallisation co-expressed with Aurora-A^M7KD and co-purified; not shown: His6, N-terminal, cleaved; SUMO, N-terminal, cleaved
T4 sequence (looked up): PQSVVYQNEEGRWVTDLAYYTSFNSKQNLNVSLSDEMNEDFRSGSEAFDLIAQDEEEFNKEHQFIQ

[5] = biological target: B3; assay: as above; settings: both partners purified
[6] = biological target: B2; assay: as above; settings: both partners purified
[7] = biological target: T5, Aurora-A^CAKD (Aurora-A kinase domain, aa 122–403 C290A, C393A), unphosphorylated (human, UniProt O14965 122-403, C290A | C393A); assay: FP; competition with FAM-TPX2 7-43
T5 sequence: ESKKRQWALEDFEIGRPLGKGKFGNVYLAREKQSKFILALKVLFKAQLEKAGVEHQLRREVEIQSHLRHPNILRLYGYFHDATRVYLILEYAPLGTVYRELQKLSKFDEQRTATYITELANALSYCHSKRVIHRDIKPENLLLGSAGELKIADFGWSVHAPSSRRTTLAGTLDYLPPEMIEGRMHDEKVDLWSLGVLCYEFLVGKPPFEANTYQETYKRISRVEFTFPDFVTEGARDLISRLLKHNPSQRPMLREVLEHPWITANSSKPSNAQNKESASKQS

Molecule: IWSPTCERRTCECHESIEKNKDKTDLPQSVVYQNEEGRWVTDLAYYTSFNSKQNLNVSLSDEMNEDFRSGSEAFDLIAQDEEEFNKEHQFIQ [CEP192 442-533, recombinant human CEP192 aa 442–533]
- competition for binding with FAM-TPX2 7-43 [1]: competed for binding with FAM-TPX2_7-43
- competition for binding with FAM-TACC3 522-536 (Aurora-A CAKD): competed for binding with FAM-TACC3_522-536
- effect on Aurora-A kinase activity ([2]; ADP-Glo, phosphorylated Aurora-A CAKD, kemptide, in words): partially inhibited the activity

Molecule: CC[C@@H]1C(=O)N(C)c2cnc(Nc3ccc(C(=O)NC4CCN(C)CC4)cc3OC)nc2N1C1CCCC1 [BI2536]
- T-loop phosphorylation of PLK1 (pT210) [3]: decreased
- phosphorylation of TCTP (pS46) [4]: decreased

Molecule: TACC3 519-563 (from UniProt Q9Y6A5)
- Kd (Aurora-A (Homo sapiens)): 6000 nM

B1: TPX2 1-43: Aurora-A activating domain of TPX2 (aa 1–43) (protein)
chain: MSQVKSSYSYDAPSDFINFSSLDDEGDTQNIDSWFEEKANLENKLLGKNGTGGLFQGKTPLRKANLQQAIVTPLKPVDNTYYKEAEKENLVEQSIPSNACSSLEVEAAISRKTPAQPQRRSLRLSAQKDLEQKEKHHVKMKAKRCATPVIIDEILPSKKMKVSNNKKKPEEEGSAHQDTAEKNASSPEKAKGRHTVPCMPPAKQKFLKSTEEQELEKSMKMQQEVVEMRKKNEEFKKLALAGIGQPVKKSVSQVTKSVDFHFRTDERIKQHPKNQEEYKEVNFTSELRKHPSSPARVTKGCTIVKPFNLSQGKKRTFDETVSTYVPLAQQVEDFHKRTPNRYHLRSKKDDINLLPSKSSVTKICRDPQTPVLQTKHRARAVTCKSTAELEAEELEKLQQYKFKARELDPRILEGGPILPKKPPVKPPTEPIGFDLEIEKRIQERESKKKTEDEHFEFHSRPCPTKILEDVVGVPEKKVLPITVPKSPAFALKNRIRMPTKEDEEEDEPVVIKAQPVPHYGVPFKPQIPEARTVEICPFSFDSRDKERQLQKEKKIKELQKGEVPKFKALPLPHFDTINLPEKKVKNVTQIEPFCLETDRRGALKAQTWKHQLEEELRQQKEAACFKARPNTVISQEPFVPKKEKKSVAEGLSGSLVQEPFQLATEKRAKERQELEKRMAEVEAQKAQQLEEARLQEEEQKKEELARLRRELVHKANPIRKYQGLEIKSSDQPLTVPVSPKFSTRFHC
- Kd (Aurora-A): 300 to 2000 nM
- EC50 ([2]; 10 nM phosphorylated Aurora-A CAKD, 10 μM ATP, 100 μM kemptide, 60 min, n = 3, read-out: ADP-Glo EC50 (stimulation of Aurora-A activity)): 6.8 ± 0.5 nM
- EC50 ([2]; ADP-Glo, 10 nM Aurora-A, first manuscript version, quoted by referee, read-out: concentration of 50 % max activation): 1 nM

Molecule: B2
- stoichiometry N (human CEP192 468–533): 0.85
- stoichiometry N [5]: 0.84

Molecule: B3
- Kd [6]: 2000 nM
- IC50 [7]: 14100 nM
